According to patent publication US20250206841A1 (ADEPT THERAPEUTICS, published 2025):

T1: human Trop-2 expressed on cell surface (human, UniProt P09758 27-323)
T1 sequence (looked up): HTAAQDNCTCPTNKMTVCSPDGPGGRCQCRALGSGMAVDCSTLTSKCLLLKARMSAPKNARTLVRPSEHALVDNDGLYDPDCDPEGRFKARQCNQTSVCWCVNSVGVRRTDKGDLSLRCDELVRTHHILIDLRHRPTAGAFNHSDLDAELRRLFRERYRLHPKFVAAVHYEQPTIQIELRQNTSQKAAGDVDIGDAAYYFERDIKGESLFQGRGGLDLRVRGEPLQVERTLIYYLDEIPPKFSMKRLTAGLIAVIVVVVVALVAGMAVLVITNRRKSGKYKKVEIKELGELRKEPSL

T2: human Trop-2-His protein (human, UniProt P09758 27-274)
T2 construct: extracellular domain; Assay paragraphs say only 'Trop-2-His'; also called hTrop-2; Kactus Cat #TRP-HM121; not shown: His tag
T2 sequence (looked up): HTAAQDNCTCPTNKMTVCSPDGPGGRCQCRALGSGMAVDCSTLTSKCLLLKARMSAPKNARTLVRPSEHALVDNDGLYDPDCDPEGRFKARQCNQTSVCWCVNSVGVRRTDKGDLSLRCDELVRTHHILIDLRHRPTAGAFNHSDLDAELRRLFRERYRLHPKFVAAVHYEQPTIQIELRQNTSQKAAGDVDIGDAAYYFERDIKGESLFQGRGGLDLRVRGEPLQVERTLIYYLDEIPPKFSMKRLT

T3: cynomolgus Trop-2-His protein (cynomolgus, UniProt P09758 27-274 (human entry))
T3 construct: also called cynmolgus Trop-His; Kactus Cat #TRP-CM121; not shown: His tag
T3 chain: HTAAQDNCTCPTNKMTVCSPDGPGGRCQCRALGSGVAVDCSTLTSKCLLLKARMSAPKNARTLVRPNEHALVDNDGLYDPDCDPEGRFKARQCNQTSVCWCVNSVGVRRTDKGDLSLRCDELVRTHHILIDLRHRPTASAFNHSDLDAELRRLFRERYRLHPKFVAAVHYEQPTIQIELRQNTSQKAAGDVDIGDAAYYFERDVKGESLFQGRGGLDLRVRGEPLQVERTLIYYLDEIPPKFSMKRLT


Assays:
[1] = molecular target: T1, human Trop-2 expressed on cell surface; assay: cell-based or functional assay
[2] = molecular target: T1, human Trop-2 expressed on cell surface; assay: cell-based or functional assay; remark: listed apart in the source
[3] = molecular target: T1, human Trop-2 expressed on cell surface; assay: cell-based or functional assay; remark: listed apart in the source
[4] = molecular target: T1, human Trop-2 expressed on cell surface; assay: flow cytometry, MCF-7 cells
Protocol: (§1) Cells were then resuspended in FACS buffer (1×DPBS/1% FBS) at 10⁶/ml concentration. One hundred microliter (100 μl) of cells were aliquoted into a single well in 96 well plates. The antibodies to be tested were serially diluted at 1:3 fold starting at 15 μg/mL and were then added into each well. The antibodies were mixed with cells and the mixtures were incubated on ice for 1 hour. After washing with FACS buffer, one hundred microliter (100 μl) of 1:400 diluted PE-conjugated anti-human Fc secondary antibody (Jackson Immuno Research) was added into each well and incubated for 30 minutes on ice. After washing with FACS buffer, stained cells were resuspended at diluted 7-ADD (Biolegend, used at 1:100 dilution) and analyzed on Guava 11HT or 5HT (Luminex). Data was analyzed using Flowjo software. EC₅₀ values were calculated using GraphPad Prism. Sacitnzurnab govitecan was used as positive control. Anti-HEL.hIgG1 was used as isotype negative control. Similar assay was performed using MCF-7 cells (known to express human Trop-2).

human Trop-2-His protein [5] = molecular target: T2, human Trop-2-His protein; assay: ELISA, coated Trop-2 protein
Protocol: (§2) Purified antibodies were tested by ELISA to confirm their binding and affinity against human and cynomolgus Trop-2-His protein. Briefly, 96-well Maxisorp plates (Nunc) were coated with 100 μl/well of 0.5 μg/ml human (Kactus Cat #TRP-HM121, or Sino Biological, Cat #10428-HO8H) or cynomolgus Trop-2 protein (Kactus Cat #TRP-CM121, or Sino Biological, Cat #90893-CO8H) diluted in 1×PBS (GIBCO) overnight at 4° C. Plates were washed four times with 300 μl/well washing buffer (1×PBST, diluted from 20×PBST (Thermo Scientific) with distilled water)) and then blocked with 300 μl/well of blocking buffer (1×PBST/3% BSA (BSA, Sigma)) for 2 hours at RT on plate shaker at 100 rpm. Plates were washed and added with 100 μl/well of testing antibodies, which were serial diluted with assay buffer (PBST/1% BSA). The antibodies were incubated at room temperature for 2 hours on plate shaker at 100 rpm. Plates were washed. One hundred microliters (100 μl) of 1:10,000 diluted horseradish peroxidase (HRP) conjugated anti-hIgG antibody (Jackson Immuno Research) was added into each well and incubated at room temperature for 1 hour on plate shaker at 100 rpm. Plates were washed and added with 100 μl/well TMB substrate for color development in dark at room temperature for up to 10 minutes. After addition of 50 μl/well of stop solution (1N H₂SO₄), plates were read at 450 nm on a plate reader (SpectraMax M5). EC₅₀ values were calculated using Graphpad Prism. Sacituzumab govitecan, was used as positive control. Anti-HEL.hIgG1 was used as isotype control.

[6] = molecular target: T3, cynomolgus Trop-2-His protein; assay: ELISA, coated Trop-2 protein
Protocol: as §2

[7] = molecular target: T1, human Trop-2 expressed on cell surface; assay: flow cytometry, MDA-MB-231-GFP cells
Protocol: as §1

human Trop-2-His protein [8] = molecular target: T2, human Trop-2-His protein; assay: BLI (Gator Plus), purified Ab on HFC probe
Protocol: The affinity of the binding of the exemplary anti-Trop-2 antibodies of the present disclosure were determined. Assay was performed using Gator Plus according to the protocol recommended by Gator Bio Inc.. Briefly, human Trop-2-His (Kactus) was 1:4 fold serially diluted starting at 1 μg/ml. After three times of regeneration and neutralization of HFC probe, 1 μg/ml of antibody to be tested in Q buffer was immobilized onto HFC probe. […] The association and dissociation of human Trop-2-His antigen from antibody was measured on BLI machine Gator Plus. Affinity was calculated using Gator Bio analysis software. Blank control was used for reference subtraction. Sacituzumab govitecan was used as positive control.

EC50 of ADCC (NFAT-CD16 reporter), MCF-7 [1]	EC50 of ADCC (NFAT-CD16 reporter), MDA-MB-231 [1]	Internalization %, MDA-MB-231, 0.25 µg/ml, 2 h [2]	Internalization %, MDA-MB-231, 0.25 µg/ml, 4 h [2]	Internalization %, MDA-MB-231, 0.5 µg/ml, 2 h [2]	Internalization %, MDA-MB-231, 0.5 µg/ml, 4 h [2]	Internalization %, MDA-MB-231, 1 µg/ml, 2 h [2]	Internalization %, MDA-MB-231, 1 µg/ml, 4 h [2]	Internalization %, MDA-MB-231, 2 µg/ml, 2 h [2]	Internalization %, MDA-MB-231, 2 µg/ml, 4 h [2]	Internalization %, MCF-7, 0.25 µg/ml, 1 h [3]	Internalization %, MCF-7, 0.25 µg/ml, 2 h [3]	Internalization %, MCF-7, 0.25 µg/ml, 4 h [3]	Internalization %, MCF-7, 0.5 µg/ml, 1 h [3]	Internalization %, MCF-7, 0.5 µg/ml, 2 h [3]	Internalization %, MCF-7, 0.5 µg/ml, 4 h [3]	EC50 [4]	EC50 (human Trop-2-His protein [5])	EC50 [6]	EC50 [7]	Binder	also measured
0.4 nM	0.04 nM	41%	46%	42%	45%	43%	49%	43%	48%	23%	39%	45%	21%	41%	40%	0.7 nM	0.018 nM	0.016 nM	0.01 nM	62E3 (antibody, V domains shown, Rabbit-derived clone; LEM construct: VH + rabbit IgG CH1 + human IgG1 CH2-CH3) VH: QEQLKESGGGLVQPGGSLKLSCKASGFDFNEYGVSWVRQAPGKGLEWIAYIYPAFHNTYYATWVNGRFTISSHNAQNTLYLQLNTLTAADTATYFCARDAGTTDYNFNLWGPGTLVTVSS VL: DVVMTQTASPVSAAVGGTVTIKCQASEDIESYLAWYQQKPGQPPKLLIYEASKLASGVSSRFSGSGYGTEFTLTISGVECADAATYYCQQALTIGNVDNPFGGGSEVVVK	Kd (human Trop-2-His protein [8]): 0.59 nM; koff (human Trop-2-His protein [8]): 0.000429 s⁻¹; kon (human Trop-2-His protein [8]): 726000 M⁻¹ s⁻¹
0.18 nM	0.03 nM	34%	38%	34%	46%	33%	41%	28%	31%	2%	31%	36%	29%	44%	49%	0.3 nM	0.033 nM	0.03 nM	0.03 nM	9F7 (antibody, V domains shown, Rabbit-derived clone; LEM construct: VH + rabbit IgG CH1 + human IgG1 CH2-CH3) VH: QEQLKESGGGLVQPGGSLTLSCKASGFDFNNYGVSWVRQAPGKGLEWIGYIYPAYHNTYYATWVNGRFTISSHNAQNTLYLQLNTLTAADTATYFCARDTGSTDYNFNLWGPGTLVTVSS VL: DVVMTQTPASVEVAVGGTVTIKCQASEDIESYLAWYQQKPGQPPKLLIYEASKLASGVSSRFSGGGYGTEFTLTISGVECADAATYYCQQALTVGNVDNPFGGGSEVVVK	Kd (human Trop-2-His protein [8]): 0.04 nM; koff (human Trop-2-His protein [8]): 2.8e-05 s⁻¹; kon (human Trop-2-His protein [8]): 634000 M⁻¹ s⁻¹

More lines, now with the values behind:

Binder	EC50 of ADCC (NFAT-CD16 reporter), MCF-7 [1]	EC50 of ADCC (NFAT-CD16 reporter), MDA-MB-231 [1]	Internalization %, MDA-MB-231, 0.25 µg/ml, 2 h [2]	Internalization %, MDA-MB-231, 0.25 µg/ml, 4 h [2]	Internalization %, MDA-MB-231, 0.5 µg/ml, 2 h [2]	Internalization %, MDA-MB-231, 0.5 µg/ml, 4 h [2]	Internalization %, MDA-MB-231, 1 µg/ml, 2 h [2]	Internalization %, MDA-MB-231, 1 µg/ml, 4 h [2]	Internalization %, MDA-MB-231, 2 µg/ml, 2 h [2]	Internalization %, MDA-MB-231, 2 µg/ml, 4 h [2]	Internalization %, MCF-7, 0.25 µg/ml, 1 h [3]	Internalization %, MCF-7, 0.25 µg/ml, 2 h [3]	Internalization %, MCF-7, 0.25 µg/ml, 4 h [3]	Internalization %, MCF-7, 0.5 µg/ml, 1 h [3]	Internalization %, MCF-7, 0.5 µg/ml, 2 h [3]	Internalization %, MCF-7, 0.5 µg/ml, 4 h [3]	EC50 [4]	EC50 (human Trop-2-His protein [5])	EC50 [6]	EC50 [7]	also measured
1D10 (antibody, V domains shown, Rabbit-derived clone; LEM construct: VH + rabbit IgG CH1 + human IgG1 CH2-CH3) VH: QEQLKESGGGLVQPGGSLTLSCKASGFDFNYYGVSWVRQAPGKGLEWIGYIYPAYHNTYYATWVNGRFTISSHNAQNTLYLQLNTLTAADTATYFCARDAGSTDYNLNLWGPGTLVTVSS VL: DVVMTQTPASVEVAVGGTVTIKCQASEDIESYLAWYQQKPGQPPRLLIYEASKLASGVSSRFSGGGYGTDFTLTISGVECADAATYYCHQALTIGNVDNPFGGGGEVVVK	0.28 nM	0.04 nM	46%	53%	48%	52%	41%	51%	39%	44%	30%	56%	49%	44%	54%	65%	0.9 nM	0.016 nM	0.017 nM	0.01 nM	Kd (human Trop-2-His protein [8]): 0.22 nM; koff (human Trop-2-His protein [8]): 0.000131 s⁻¹; kon (human Trop-2-His protein [8]): 604000 M⁻¹ s⁻¹
72F12 (antibody, V domains shown, Rabbit-derived clone; LEM construct: VH + rabbit IgG CH1 + human IgG1 CH2-CH3) VH: QEQLKESGGGLVQPGGSLKLSCKASGFDFNNYGVSWVRQAPGKGLEWIAYIYPAFHNTYYATWVNGRFTISSHNAQNTLYLQLNSLTAADTATYFCARDAGSVDYNFNLWGPGTLVTVSS VL: DVVMTQTPASVEVAVGGTVTIKCQASKNIDSNLAWYQQKPGQPPKQLIYAASTLASGVSSRFSGSGYGAEFTLTISGVECADAATYYCQQALTIGNVDNPFGGGSEVVVK	0.16 nM	0.07 nM	38%	48%	42%	48%	35%	45%	37%	45%	21%	37%	47%	24%	39%	48%	0.7 nM	0.013 nM	0.013 nM	0.01 nM	Kd (human Trop-2-His protein [8]): 0.63 nM; koff (human Trop-2-His protein [8]): 0.000541 s⁻¹; kon (human Trop-2-His protein [8]): 865000 M⁻¹ s⁻¹
